Test results from patent publication US20130244255A1 (published 2013).

Tests used:
[1] = target: T1, GPNMB (CG56972) as expressed by human cell lines (human, UniProt Q14956 23-492); assay: FACS on SW 1783 cells, CR011 10 ug/mL
T1 construct: Endogenous or transfected full-length protein on cells (FACS, killing assays) or in cell lysates (immunoprecipitation, blot); also called native GPNMB protein
T1 sequence: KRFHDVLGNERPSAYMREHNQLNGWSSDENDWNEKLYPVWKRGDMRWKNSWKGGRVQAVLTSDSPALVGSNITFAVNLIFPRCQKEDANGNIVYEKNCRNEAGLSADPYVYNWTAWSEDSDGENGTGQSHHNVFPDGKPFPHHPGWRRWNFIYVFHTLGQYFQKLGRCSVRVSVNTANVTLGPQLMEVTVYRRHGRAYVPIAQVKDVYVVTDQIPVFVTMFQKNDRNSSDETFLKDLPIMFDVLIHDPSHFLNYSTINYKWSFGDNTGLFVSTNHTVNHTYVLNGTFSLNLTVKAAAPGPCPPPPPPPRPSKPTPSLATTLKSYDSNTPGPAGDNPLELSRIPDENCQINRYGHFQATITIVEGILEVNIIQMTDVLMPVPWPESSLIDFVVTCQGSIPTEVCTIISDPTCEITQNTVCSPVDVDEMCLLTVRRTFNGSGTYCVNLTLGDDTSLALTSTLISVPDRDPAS
Procedure: (§1) Quantitative analysis of CG56972 expression on the surface of cell lines was determined by flow cytometry (FACS). […] Cells were fixed in 1% paraformaldehyde/PBS and examined on a Becton Dickinson FACSCalibur flow cytometer. Data analysis was performed with Becton Dickinson Cell Quest software version 3.3 and the geometric mean fluorescence intensity ratio (GMR) was determined for each cell type.

[2] = target: T1, GPNMB (CG56972) as expressed by human …; assay: FACS on LOXIMVI cells
[3] = target: T1, GPNMB (CG56972) as expressed by human …; assay: FACS on PL-21 cells, antibody 1 ug/mL
Procedure: (§2) Lymphoma or leukemia derived cells were washed twice with ice-cold FACS buffer and resuspended at 1 million cells per assay tube. […] Cells were then washed 2-3 times and resuspended in 1 mL of ice-cold FACS buffer. R-PE-conjugated goat anti-human antibody at 1:100 dilution was added and cells were incubated on ice for 30 min. Cells were washed 3 times with 1 mL of ice-cold FACS buffer, fixed with 0.5-1 mL of 1% formaldehyde in PBS and analyzed by Flow Cytometry.

[4] = target: T1, GPNMB (CG56972) as expressed by human …; assay: FACS on RPMI-7951 cells
[5] = target: T1, GPNMB (CG56972) as expressed by human …; assay: FACS on SUP-M2 cells, antibody 1 ug/mL
Procedure: as §2

[6] = target: T1, GPNMB (CG56972) as expressed by human …; assay: FACS on WSU-NH2 cells, antibody 1 ug/mL
Procedure: as §2

[7] = target: T1, GPNMB (CG56972) as expressed by human …; assay: FACS on WM-266-4 cells
[8] = target: T1, GPNMB (CG56972) as expressed by human …; assay: FACS on THP-1 cells, antibody 1 ug/mL
Procedure: as §2

[9] = target: T1, GPNMB (CG56972) as expressed by human …; assay: FACS on EOL-1 cells, antibody 1 ug/mL
[10] = target: T2, Recombinant human GPNMB extra-cellular domain (ECD) with a C-terminus V5-HIS tag (human, UniProt Q14956 23-492); assay: Biacore, mAb captured on protein A
T2 construct: Expressed in HEK293; also called GPNMB-V5His; GPNMB-soluble
T2 sequence: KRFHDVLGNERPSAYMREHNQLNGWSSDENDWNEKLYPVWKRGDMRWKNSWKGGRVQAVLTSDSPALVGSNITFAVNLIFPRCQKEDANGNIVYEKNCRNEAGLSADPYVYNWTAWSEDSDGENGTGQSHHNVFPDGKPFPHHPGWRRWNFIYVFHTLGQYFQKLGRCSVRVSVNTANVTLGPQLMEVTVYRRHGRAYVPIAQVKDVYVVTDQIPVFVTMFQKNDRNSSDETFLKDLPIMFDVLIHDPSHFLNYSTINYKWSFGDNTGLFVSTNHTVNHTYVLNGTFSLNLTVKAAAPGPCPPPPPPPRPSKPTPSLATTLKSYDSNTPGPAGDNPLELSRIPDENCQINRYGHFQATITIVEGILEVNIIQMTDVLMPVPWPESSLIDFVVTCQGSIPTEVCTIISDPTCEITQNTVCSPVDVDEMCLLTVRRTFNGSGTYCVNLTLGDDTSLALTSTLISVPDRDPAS
Procedure: Certain Hybridoma cell supernatants (29) were analyzed for binding to GPNMB by BiaCore® 2000 biosensor equipped with a research-grade CM5 sensor chip. A 1:25 dilution of cell supernatant was passed over a protein A surface for 5 min followed by washing the surface for 10 mins. […] GPNMB binding data for each mAb was normalized for the amount of mAb captured on each surface. Normalized, drift corrected responses were also measured. The sensorgrams were fit to a simple 1:1 kinetic model.

[11] = target: T1, GPNMB (CG56972) as expressed by human …; assay: FACS on SF-295 cells, CR011 10 ug/mL
Procedure: as §1

[12] = target: T1, GPNMB (CG56972) as expressed by human …; assay: FACS on KG-1 cells, antibody 1 ug/mL
Procedure: as §2

[13] = target: T1, GPNMB (CG56972) as expressed by human …; assay: FACS on SIG-M5 cells, antibody 1 ug/mL
Procedure: as §2

[14] = target: T1, GPNMB (CG56972) as expressed by human …; assay: FACS on D392-MG cells, CR011 10 ug/mL
Procedure: as §1

[15] = target: T1, GPNMB (CG56972) as expressed by human …; assay: FACS on HUT-78 cells, antibody 1 ug/mL
[16] = target: T1, GPNMB (CG56972) as expressed by human …; assay: FACS on Jurkat cells, antibody 1 ug/mL
Procedure: as §2

[17] = target: T1, GPNMB (CG56972) as expressed by human …; assay: FACS on UACC-257 cells
[18] = target: T1, GPNMB (CG56972) as expressed by human …; assay: FACS on MOLT-4 cells, antibody 1 ug/mL
Procedure: as §2

[19] = target: T1, GPNMB (CG56972) as expressed by human …; assay: FACS on D534-MG cells, CR011 10 ug/mL
Procedure: as §1

[20] = target: T1, GPNMB (CG56972) as expressed by human …; assay: FACS on DEL cells, antibody 1 ug/mL
Procedure: as §2

[21] = target: T1, GPNMB (CG56972) as expressed by human …; assay: FACS on U-251 cells, CR011 10 ug/mL
Procedure: as §1

[22] = target: T1, GPNMB (CG56972) as expressed by human …; assay: FACS on SF-539 cells, CR011 10 ug/mL
Procedure: as §1
Geometric Mean ratios (GMR) were determined by flow cytometric analysis.

[23] = target: T1, GPNMB (CG56972) as expressed by human …; assay: FACS on HUT-102 cells, antibody 1 ug/mL

B1: CR011 mAb 1.15.1 (IgG2) (antibody)
heavy: QVQLQESGPGLVKPSQTLSLTCTVSGGSISSFNYYWSWIRHHPGKGLEWIGYIYYSGSTYSNPSLKSRVTISVDTSKNQFSLTLSSVTAADTAVYYCARGYNWNYFDYWGQGTLVTVSSASTKGPSVFPLAPCSRSTSESTAALGCLVKDYFPEPVTVSWNSGALTSGVHTFPAVLQSSGLYSLSSVVTVPSSNFGTQTYTCNVDHKPSNTKVDKTVERKCCVECPPCPAPPVAGPSVFLFPPKPKDTLMISRTPEVTCVVVDVSHEDPEVQFNWYVDGVEVHNAKTKPREEQFNSTFRVVSVLTVVHQDWLNGKEYKCKVSNKGLPAPIEKTISKTKGQPREPQVYTLPPSREEMTKNQVSLTCLVKGFYPSDIAVEWESNGQPENNYKTTPPMLDSDGSFFLYSKLTVDKSRWQQGNVFSCSVMHEALHNHYTQKSLSLSPGK
VL: not shown
notes: also called CR011.1.15.1; CR011 IgG2
[1]
  CR011 Fold Shift (GMR): 1.1 fold
[2]
  Geo Mean Ratio (relative to isotype): 1 ratio
[3]
  Geo Mean Ratio: 12 ratio
[4]
  Geo Mean Ratio (relative to isotype): 6 ratio
[5]
  Geo Mean Ratio: 4.8 ratio
[6]
  Geo Mean Ratio: 1 ratio
[7]
  Geo Mean Ratio (relative to isotype): 13.6 ratio
[8]
  Geo Mean Ratio: 6.1 ratio
[9]
  Geo Mean Ratio: 1 ratio
[10]
  Kd: 52 nM
  koff: 0.000855 s⁻¹
  kon: 16500 M⁻¹ s⁻¹
[11]
  CR011 Fold Shift (GMR): 1.8 fold
[12]
  Geo Mean Ratio: 6.9 ratio
[13]
  Geo Mean Ratio: 2.9 ratio
[14]
  CR011 Fold Shift (GMR): 3.1 fold
[15]
  Geo Mean Ratio: 1.5 ratio
[16]
  Geo Mean Ratio: 14.7 ratio
[17]
  Geo Mean Ratio (relative to isotype): 7 ratio
[18]
  Geo Mean Ratio: 6.2 ratio
[19]
  CR011 Fold Shift (GMR): 2.3 fold
[20]
  Geo Mean Ratio: 7.9 ratio
[21]
  CR011 Fold Shift (GMR): 1.9 fold
[22]
  CR011 Fold Shift (GMR): 5.4 fold
[23]
  Geo Mean Ratio: 1 ratio
